In patent US20090182306A1, “Microneedle Devices and Methods of Drug Delivery or Fluid Withdrawal” (Georgia Tech Research Corporation, priority 2006, published 2009):

Key:
[1] = In vivo delivery of human growth hormone in hairless rats; settings: subcutaneous injection of 196 μg
Description: Microneedle devices were prepared as described in Example 3. The microneedles and base substrate were both made of CMC and, in some cases, 50% trehalose was included in the formulation too. Human growth hormone (Pfizer) was added to the microneedles at a content of 191-249 μg per 100-needle array. The ratio of growth hormone to matrix material (i.e., CMC or CMC plus trehalose) was 1 to 9. Microneedles were inserted into the skin of hairless rats (Charles River Laboratories). The microneedles inserted easily by hand and were left in place for 24 hours. Minimal skin irritation was seen after microneedle use. A positive control group was included, in which rats received subcutaneous injection of 196 μg of human growth hormone. Blood was drawn periodically and assayed using an ELISA kit specific for human growth hormone without cross-reactivity with rat growth hormone (Diagnostic Systems Laboratories, Webster, Tex.).

[2] = Lysozyme secondary structure by circular dichroism after encapsulation and storage; type: physicochemical
Description: The secondary structure of the model drug lysozyme was examined by spectropolarimetry (JASCO, J-810, Tokyo, Japan) after encapsulation and release from dissolving microneedles produced in accordance with Example 3. CMC pyramidal microneedle devices weighing 5 mg that encapsulated lysozyme at a mass fraction of 5 wt % were completely dissolved in […] PBS at room temperature for 10 min and filtered by centrifugal filtration (Centricon YM-50, Millipore, Bedford, Mass., USA) at 1000×g and room temperature for 10 min to isolate lysozyme (14.3 kDa) from the dissolved CMC matrix material (90 kDa average molecular mass). After determining lysozyme concentration, PBS was added to dilute the lysozyme to 20 μg/ml. CD spectra were taken for (1) untreated lysozyme, (2) lysozyme encapsulated in microneedles that were dissolved 1 h after fabrication, (3) lysozyme encapsulated in microneedles that were dissolved after 60 days of storage at ambient conditions (23±2° C. and 38±5% relative humidity), and (4) lysozyme thermally treated at 80° C. for 30 min to cause irreversible denaturation.

[3] = Lysozyme enzymatic activity (EnzCheck lysozyme assay kit) after encapsulation and storage; type: biochemical
Description: Enzymatic activity of lysozyme encapsulated within CMC microneedle devices was tested with EnzCheck lysozyme assay kit (Molecular Probes). Microneedle devices weighing 5 mg that contained lysozyme encapsulated at a concentration of 5 wt % were completely dissolved in PBS at room temperature for 10 min. PBS was added to dilute each sample to 0.05 μg/ml lysozyme and 0.95 μg/ml CMC. Lysozyme activity was assayed using 1 ml solution samples for: (1) untreated lysozyme, (2) untreated lysozyme (0.05 μg) and CMC hydrogel (0.95 μg) mixed, and dissolved together, (3) lysozyme encapsulated in microneedles that were dissolved 1 h after fabrication, and (4) lysozyme encapsulated in microneedles that were dissolved after 60 days of storage at ambient conditions.

Substance | time of serum concentration peak [1] | protein structure (CD) ([2]; after storage of microneedle patches for 2 months at room temperature) | change in protein secondary structure (CD) ([2]; encapsulated in microneedle patch, then released by dissolution, versus untreated lysozyme) | secondary structure (CD), positive control ([2]; thermally treated at 80° C. for 30 min) | loss of enzymatic activity compared to untreated enzyme ([3]; encapsulated in microneedles, dissolved in PBS) | retained enzymatic activity ([3]; released from microneedles after two months of storage) [%] | change in lysozyme activity ([3]; untreated lysozyme mixed with dissolved CMC microneedle containing no lysozyme)
growth hormone: Human growth hormone (Pfizer) | within about one hour | – | – | – | – | – | –
lysozyme: model drug (14.3 kDa) encapsulated at 5 wt % in CMC microneedle devices | – | unchanged | no detectable change | extensive degradation of secondary structure | no loss of enzymatic activity | 96 | no change in lysozyme activity
